The target of this assay is Furin (literature) (UniProt P09958).
Chain of Furin (literature) (P09958 108-715): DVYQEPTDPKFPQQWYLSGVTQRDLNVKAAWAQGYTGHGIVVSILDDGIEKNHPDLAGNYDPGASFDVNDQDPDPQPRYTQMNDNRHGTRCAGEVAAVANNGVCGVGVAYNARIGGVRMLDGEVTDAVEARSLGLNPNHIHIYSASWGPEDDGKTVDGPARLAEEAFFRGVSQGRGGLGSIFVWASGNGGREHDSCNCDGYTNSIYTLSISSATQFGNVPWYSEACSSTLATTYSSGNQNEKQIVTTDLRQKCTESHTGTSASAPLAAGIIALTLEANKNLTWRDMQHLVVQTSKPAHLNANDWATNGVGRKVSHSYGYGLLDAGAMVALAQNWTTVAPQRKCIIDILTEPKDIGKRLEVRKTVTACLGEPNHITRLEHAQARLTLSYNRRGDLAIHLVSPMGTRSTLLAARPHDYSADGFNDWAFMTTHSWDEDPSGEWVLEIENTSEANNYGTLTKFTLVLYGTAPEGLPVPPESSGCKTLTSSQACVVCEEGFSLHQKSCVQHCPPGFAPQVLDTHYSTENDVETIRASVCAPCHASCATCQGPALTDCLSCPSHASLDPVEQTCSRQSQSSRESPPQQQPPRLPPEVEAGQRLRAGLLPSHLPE

B1: Proteinase inhibitor 8 (PI8) (protein)
chain: MDDLCEANGTFAISLFKILGEEDNSRNVFFSPMSISSALAMVFMGAKGSTAAQMSQALCLYKDGDIHRGFQSLLSEVNRTGTQYLLRTANRLFGEKTCDFLPDFKEYCQKFYQAELEELSFAEDTEECRKHINDWVAEKTEGKISEVLDAGTVDPLTKLVLVNAIYFKGKWNEQFDRKYTRGMLFKTNEEKKTVQMMFKEAKFKMGYADEVHTQVLELPYVEEELSMVILLPDDNTDLAVVEKALTYEKFKAWTNSEKLTKSKVQVFLPRLKLEESYDLEPFLRRLGMIDAFDEAKADFSGMSTEKNVPLSKVAHKCFVEVNEEGTEAAAATAVVRNSRCSRMEPRFCADHPFLFFIRHHKTNCILFCGRFSSP
B1: affinity was put at a Ki of 0.0538 nM.

These data come from patent publication US7033991 (dated 2006).
